Measurements: patent US20240033341A1 (CALIFORNIA INSTITUTE OF TECHNOLOGY, published 2024)
Substitutions are numbered along the chain they refer to.

B1: 3BNC60 iGL IgG (antibody, V domains shown)
VH: not shown
VL: DIQMTQSPSSLSASVGDRVTITCQASQDISNYLNWYQQKPGKAPKLLIYDASNLETGVPSRFSGSGSGTDFTFTISSLQPEDIATYYCQQYEFIGPGTKVDIKR
B2: VRC01 iGL IgG (antibody, V domains shown)
VH: not shown
VL: EIVLTQSPATLSLSPGERATLSCRASQSVSSYLAWYQQKPGQAPRLLIYDASNRATGIPARFSGSGSGTDFTLTISSLEPEDFAVYYCQQYEFFGQGTKLEIKR
B3: IOMA IgG (antibody, V domains shown)
VH: EVQLVESGAQVKKPGASVTVSCTASGYKFTGYHMHWVRQAPGRGLEWMGWINPFRGAVKYPQNFRGRVSMTRDTSMEIFYMELSRLTSDDTAVYYCAREMFDSSADWSPWRGMVAWGQGTLVTVSS
VL: QSALTQPASVSGSPGQSITISCAGSSRDVGGFDLVSWYQQHPGKAPKLIIYEVNKRPSGISSRFSASKSGNTASLTISGLQEEDEAHYYCYSYADGVAFGGGTKLTVLG
notes: Mature CD4bs bNAb; also called mature IOMA
B4: IO-010 (antibody, V domains shown)
VH: QVQLVQSGAEVKKPGASVTVSCKASGYTFTGYHLHWVRQAPGQGLEWMGWINPFRGAIGYAQKFRGRVTMTRDTSIITAYMELRGLRSDDTAVYFCAREMFDSDDEWSPWRGMVAWGQGTLVTVSS
VL: QSALTQPASVSGSPGQSITISCTGTSSDIGGYNLVSWYQQHPGKAPKLMIYDVNKRPSGVSNRFSGSKSGNTASLTISGFQAEDEADYYCCSYADTLVFGGGTKLTVL
notes: also called 10-010
B5: IO-050 (antibody, V domains shown)
VH: QVQLVQSGAEVKKPGASVRVSCKASGYTFTDYEIHWVRQAPGQGLEWMGWINPFRGAVKYRQKFQGRVTMTRDPSITTAYMELSRLRSDDTARYYCAREMFDSDDEWSPWRGMVAWGQGTLVTVSS
VL: B4 VL with I29V, G31S, D52E, N54S, K55R, V98I
B6: IO-017 (antibody, V domains shown)
VH: B4 VH with I77N, E106D
VL: B4 VL with N33D
notes: also called 10-017
B7: IO-003 (antibody, V domains shown)
VH: QVQLVQSGAEVKKPGASVTVSCKASGYTFTDYFIHWVRQAPGQGLEWMGWINPFRGAVDYAQKFRGRVTMTRDTSITTAYMELSRLRSDDTAVYYCARAMFDSSDEWSPWHGLVAWGQGTLVTVSS
VL: QSALTQPASVSGSPGQSITISCTGTSRDIGSFNLVSWYQQHPGKAPKLMIYDVSKRPSGVSNRFSGSKSDNMASLIISGFQAEDEAEYFCCSFAGSLAFGGGTKLTVL
B8: IO-008 (antibody, V domains shown)
VH: QVQLVQSGAEVKKPGASVTVSCKASGYTFTGYELHWVRQAPGQGLEWMGWINPYRGAVKYAQKFQGRVTMTRDTSISTAYMVLNGLRSDDTAVYYCARDMFDSSDEWSPWRGMVAWGQGTPVTVSS
VL: B4 VL with I29V, G31S, N33D, D52E, N54S, F80L, T96S, L105V, V107G

Target: 426c.TM4 gp120 (HIV-1 (clade C strain 426c, engineered))
Assay: ELISA, gp120 coated on the plate, IgG titrated

| Binder | binding result |
| --- | --- |
| B1 | binds |

Target: T1, IGT2 gp120 (HIV-1 (clade C strain 426c, engineered))
Assay: ELISA, gp120 coated on the plate, IgG titrated

| Binder | binding result |
| --- | --- |
| B2 | binds |

Target: T2, CE0217 (Autologous)
T2 construct: also called CE0217 SOSIP
Assay: Env ELISA, IgG dilution series on SOSIP trimer, area under the binding curve

| Binder | binding result |
| --- | --- |
| B3 | binds |
| B4 | binds |
| B5 | binds |
| B6 | binds |

Target: T3, CNE20
T3 construct: also called CNE20 SOSIP
Assay: as above

| Binder | binding result |
| --- | --- |
| B7 | binds |
| B3 | binds |
| B4 | binds |
| B8 | binds |
| B5 | binds |
| B6 | no binding |

Target: CNE20 N276A
Assay: as above

| Binder | binding result |
| --- | --- |
| B7 | binds |
| B3 | binds |
| B4 | binds |
| B8 | binds |
| B5 | binds |
| B6 | binds |

Target: BG505
Assay: as above

| Binder | binding result |
| --- | --- |
| B7 | binds |
| B3 | binds |
| B4 | binds |
| B8 | binds |
| B5 | no binding |

Target: T4, IGT2 SOSIP (HIV-1 (clade C strain 426c, engineered))
T4 construct: also called SOSIP version of IGT2
Assay: SPR with SOSIP (FIG. 6I), ELISA (FIG. 1E)

| Binder | binding result |
| --- | --- |
| B1 | binds |
| B2 | binds |

Target: T1, IGT2 gp120
Assay: ELISA with gp120 (FIG. 1E, FIG. 6J)

| Binder | binding result |
| --- | --- |
| B1 | binds |
